From the supplement of paper PMC10567573

B1: NP_006221.1 (parent)
chain: CQPISFSGFGAEDDDLGGLGLGP
B2: CDKN1A (parent)
chain: RRQTSMTDFYHSKRRLIFSKRKP

Variants of: B1
Assay: protein stability index of a GFP-peptide fusion (GPS, HEK-293T) (PSI 1-6); higher = more stable
Settings: c terminus: native

Protein stability index, by site and new letter:
F9: M 2.41; T 2.7; S 2.56; A 2.58; I 2.35; Y 2.01; E 2.98; G 3.01; N 2.87; Q 2.54; D 3.32; R 2.04
A11: V 2.33; R 2.32; S 2.22; F 1.95; H 2.37; L 1.81; D 2.37; T 2.26; G 2.36; M 2.04; K 2.09; C 2.08; Y 2.06; N 2.09; P 2.17
I4: C 2.43; D 2.48; K 2.05; L 2.11; V 2.54; Q 2.15; S 2.31; G 2.29; N 2.45; Y 2.09; H 2.25; T 2.47; M 2.21
G22: E 2.13; N 3.35; S 2.1; H 2.8; K 4.15; I 2.37; M 2.32; D 2.15; R 3.32; F 2.4; C 2.25
S5: E 2.99; W 2.58; R 2.14; C 2.16; H 2.42; K 2.39; P 2.42; T 2.41; Y 2.25; Q 2.24
G8: L 1.97; M 2.23; W 2.19; P 3.55; C 1.96; F 2.39; Y 2.31; H 1.98; R 2.52; V 2.16; E 2.03; D 2.05; S 2.15; K 2.48; T 2.34
L19: V 2.11; G 2.87; C 2.52; T 3.02; A 2.72; N 2.54; Y 2.31; P 2.7; M 2.29; W 2.78; F 2.51; E 2.49; H 2.96; K 1.99; D 2.39; Q 2.39; S 2.91
D15: K 2.2; V 2.29; W 2.44; Q 2.67; G 2.57; E 2.15; I 2.4; F 2.32; M 2.47; P 2.38; L 2.41; T 2.52
F6: P 4.41; S 3.93; G 4.16; Y 2.52; V 3.43; T 3.93; I 3.63; A 3.88; W 2.22; C 3.41; K 4.18; N 4.41; E 4.72; R 3.86; L 3.5; D 4.57
L21: Y 4.14; K 3.95; F 4; I 3.46; S 5.12; N 4.89; P 5.09; M 3.33; Q 4.85; E 5.34; T 3.94; V 3.37; W 4.11; G 4.98
E12: M 2.25; P 2.07; S 2.44; I 1.94; C 2.43; W 2.29; T 2.06; R 2.31; H 2.48; V 2.3; K 2.17; Y 2.12; A 2.32; N 2.32; L 1.88; D 2.22
D13: M 2.24; W 2.31; G 2.53; F 2.54; I 2.5; R 2.04; T 2.28; V 2.28; C 2.42; Y 2.02; S 2.41; H 2.2; Q 2.21; A 2.46
P3: I 2.29; H 2.06; M 2.15; D 2.2; C 2.12; Y 2.01; W 1.94; K 2.05; N 2.2; E 2.46; T 2.09; S 2.37; V 2.14; F 1.94; G 2.3; A 2.19; L 2.1
G20: F 3.81; Y 2.83; W 3.19; D 2.58; L 3.54; V 3.37; T 3.68; R 3.93; K 4.31; C 2.51; E 2.81; A 2.29; I 3.2; Q 2.69
G10: I 2.08; A 2.16; E 2.08; C 2.04; Q 2.3; Y 1.94; S 1.95; T 1.91; F 2.06; W 1.9; D 2.51; K 1.96; M 2.29; P 1.83; V 2.2; L 2.56
L16: Y 2.27; H 2.26; Q 2.27; K 2.25; D 2.22; E 1.85; V 2.36; S 2.28; G 2.21; N 2.07; C 2.34; T 2.35; F 2.23; R 2.18; M 2.45; I 2.21; P 2.15
Q2: A 1.98; C 2.14; R 2.17; Y 2.09; F 1.99; M 2.16; V 1.98; L 2.51; D 2.51; S 2.64; T 2.16; W 2.13; P 2.19; N 2.31; E 2.43; K 2.22; G 2.1
G18: K 1.93; W 2.57; E 2.42; M 1.99; C 2.35; R 2.31; Q 2; A 2.13; D 2.19; L 2.24; F 2.24; V 2.17; Y 2.18; I 2.18; H 1.99; S 2.24
G17: F 2.08; H 2.17; Q 2.12; L 2.2; D 2.33; P 2.05; N 2.36; T 2.1; S 2.26; K 2.08; A 2.16; W 2.46; R 1.52; E 2.36
C1: W 1.91; I 2.12; H 2.17; D 2.57; P 2.33; Y 2.18; G 2.41; R 2.31; E 2.53; Q 2.37; M 2.34; L 1.97; K 2.06; S 2.17; T 2.14; A 2.11
P23: I 2.95; Y 2.25; N 4.72; L 3.57; F 3.04; H 3.99; W 2.73; E 4.96; Q 4.25; K 4.66; S 4.5; A 2.17
D14: R 1.99; E 2.17; T 2.18; P 2.19; L 2.44; Q 2.11; F 2.51; N 2.33; W 2.48; M 2.29; G 2.13; I 2.21; H 2.27; C 2.12
S7: H 3.06; V 2.07; C 2.11; A 1.89; Q 2.48; F 2.48; R 2.56; E 2.72; L 2.43; T 2.19; P 4.14; Y 2.6; M 2.47; D 3.66; W 2.42

Variants of: B2
Assay: as above
Settings: c terminus: native

Protein stability index: each site, then its substitutions
P23: Y 3.15
